# B1: WEE1 (parent)
# chain: FLGSSFSPVRCGGPGDASPRGCGA
# Variants of: B1
# Experiment: protein stability index of a GFP-peptide fusion (GPS, HEK-293T) (PSI 1-6); higher = more stable
# Conditions: c terminus: a fixed tail appended
# 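Also: lentivirally expressed fusions sorted by FACS into six bins by GFP to DsRed ratio, PSI derived from sequencing read proportions per bin multiplied by bin number.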
row,Variant,protein stability index
1,FLGSSFSPVRCGGPGDCSPRGCGA [A17C],2.06
2,FLGSSFSPVRCGGPGDDSPRGCGA [A17D],2.34
3,FLGSSFSPVRCGGHGDASPRGCGA [P14H],1.86
4,FLGSSFSPVRCGGSGDASPRGCGA [P14S],2.24
5,FLGSSFSPVRCGGMGDASPRGCGA [P14M],1.17
6,FLGSSFSPVRCGGLGDASPRGCGA [P14L],1.59
7,FLGSSFSPVRCGGCGDASPRGCGA [P14C],2.18
8,FLGSSFSPVRCGGWGDASPRGCGA [P14W],1.94
9,FLGSSFSPVRCGGQGDASPRGCGA [P14Q],2.42
10,FLGSSFSPVRCGGNGDASPRGCGA [P14N],1.85
11,FLGSSFSPVRCGGDGDASPRGCGA [P14D],1.9
12,FLGSSFSPVRCGGEGDASPRGCGA [P14E],2.22
13,FLGSSFSPVRCGGTGDASPRGCGA [P14T],1.15
14,FLGSSFSPVRCGGKGDASPRGCGA [P14K],2.81
15,FLGSSFSPVRCGGAGDASPRGCGA [P14A],1.45
16,FLGSSFSPVRCGGRGDASPRGCGA [P14R],2.35
17,FLGSSFSPVRCGGGGDASPRGCGA [P14G],2.04
18,FLGSSFSPVRCGGFGDASPRGCGA [P14F],3.56
19,FLGSSFSPVRCGGIGDASPRGCGA [P14I],2.29
20,FLGSSFSPVRCGGYGDASPRGCGA [P14Y],2.42
21,FLGSSFSPVRCGGVGDASPRGCGA [P14V],1.35
22,FLGSSFSPVRKGGPGDASPRGCGA [C11K],1.91
23,FLGSSFSPVRVGGPGDASPRGCGA [C11V],1.95
24,FLGSSFSPVRAGGPGDASPRGCGA [C11A],2.78

row,Variant,protein stability index
1,FLGSSFSPVRLGGPGDASPRGCGA [C11L],2.22
2,FLGSSFSPVRRGGPGDASPRGCGA [C11R],2.69
3,FLGSSFSPVRQGGPGDASPRGCGA [C11Q],2.48
4,FLGSSFSPVRFGGPGDASPRGCGA [C11F],2.19
5,FLGSSFSPVRDGGPGDASPRGCGA [C11D],3.3
6,FLGSSFSPVRIGGPGDASPRGCGA [C11I],2.12
7,FLGSSFSPVRTGGPGDASPRGCGA [C11T],2.27
8,FLGSSFSPVRNGGPGDASPRGCGA [C11N],2.53
9,FLGSSFSPVREGGPGDASPRGCGA [C11E],2.39
10,FLGSSFSPVRHGGPGDASPRGCGA [C11H],2.1
11,FLGSSFSPVRMGGPGDASPRGCGA [C11M],2.4
12,FLGSSFSPVRPGGPGDASPRGCGA [C11P],2.44
13,FLGSSFSPVRWGGPGDASPRGCGA [C11W],1.46
14,FLGSSFSPVRSGGPGDASPRGCGA [C11S],2.62
15,FLGSSFSPVRGGGPGDASPRGCGA [C11G],2.34
16,FLGSSFSPVRYGGPGDASPRGCGA [C11Y],2.01
17,FLGSSFFPVRCGGPGDASPRGCGA [S7F],1.12
18,FLGSSFVPVRCGGPGDASPRGCGA [S7V],1.03
19,FLGSSFLPVRCGGPGDASPRGCGA [S7L],1.48
20,FLGSSFIPVRCGGPGDASPRGCGA [S7I],2.34
21,FLGSSFYPVRCGGPGDASPRGCGA [S7Y],2.16
22,FLGSSFHPVRCGGPGDASPRGCGA [S7H],1.81
23,FLGSSFKPVRCGGPGDASPRGCGA [S7K],2.47
24,FLGSSFTPVRCGGPGDASPRGCGA [S7T],2.9

row,Variant,protein stability index
1,FLGSSFPPVRCGGPGDASPRGCGA [S7P],1.36
2,FLGSSFCPVRCGGPGDASPRGCGA [S7C],2.41
3,FLGSSFDPVRCGGPGDASPRGCGA [S7D],3.47
4,FLGSSFEPVRCGGPGDASPRGCGA [S7E],2.5
5,FLGSSFQPVRCGGPGDASPRGCGA [S7Q],1.93
6,FLGSSFMPVRCGGPGDASPRGCGA [S7M],2.48
7,FLGSSFRPVRCGGPGDASPRGCGA [S7R],2.38
8,FLGSSFGPVRCGGPGDASPRGCGA [S7G],2.73
9,FLGSSFNPVRCGGPGDASPRGCGA [S7N],2.22
10,FLGSSFSPVRCGGPGVASPRGCGA [D16V],1.91
11,FLGSSFSPVRCGGPGNASPRGCGA [D16N],1.39
12,FLGSSFSPVRCGGPGTASPRGCGA [D16T],1.57
13,FLGSSFSPVRCGGPGAASPRGCGA [D16A],1.26
14,FLGSSFSPVRCGGPGKASPRGCGA [D16K],1.81
15,FLGSSFSPVRCGGPGMASPRGCGA [D16M],2.45
16,FLGSSFSPVRCGGPGQASPRGCGA [D16Q],1.86
17,FLGSSFSPVRCGGPGWASPRGCGA [D16W],1.74
18,FLGSSFSPVRCGGPGEASPRGCGA [D16E],1.93
19,FLGSSFSPVRCGGPGIASPRGCGA [D16I],1.61
20,FLGSSFSPVRCGGPGHASPRGCGA [D16H],2.27
21,FLGSSFSPVRCGGPGGASPRGCGA [D16G],1.99
22,FLGSSFSPVRCGGPGSASPRGCGA [D16S],2.09
23,FLGSSFSPVRCGGPGCASPRGCGA [D16C],2.57
24,FLGSSFSPVRCGGPGRASPRGCGA [D16R],2.06

row,Variant,protein stability index
1,FLGSSFSPVRCGGPGFASPRGCGA [D16F],2.35
2,FLGSSFSPVRCGGPGYASPRGCGA [D16Y],1.23
3,FLGSSFSPVRCGGPGPASPRGCGA [D16P],1.73
4,FLGSSFSPVRCGGPGLASPRGCGA [D16L],1.88
5,FLGSSFSHVRCGGPGDASPRGCGA [P8H],1.71
6,FLGSSFSKVRCGGPGDASPRGCGA [P8K],1.66
7,FLGSSFSTVRCGGPGDASPRGCGA [P8T],1.43
8,FLGSSFSFVRCGGPGDASPRGCGA [P8F],2.49
9,FLGSSFSWVRCGGPGDASPRGCGA [P8W],2.83
10,FLGSSFSAVRCGGPGDASPRGCGA [P8A],1.38
11,FLGSSFSQVRCGGPGDASPRGCGA [P8Q],1.64
12,FLGSSFSMVRCGGPGDASPRGCGA [P8M],1.85
13,FLGSSFSDVRCGGPGDASPRGCGA [P8D],1.97
14,FLGSSFSEVRCGGPGDASPRGCGA [P8E],2.23
15,FLGSSFSIVRCGGPGDASPRGCGA [P8I],1.23
16,FLGSSFSGVRCGGPGDASPRGCGA [P8G],1.81
17,FLGSSFSLVRCGGPGDASPRGCGA [P8L],2.15
18,FLGSSFSVVRCGGPGDASPRGCGA [P8V],1.97
19,FLGSSFSRVRCGGPGDASPRGCGA [P8R],1.48
20,FLGSSFSYVRCGGPGDASPRGCGA [P8Y],1.78
21,FLGSSFSSVRCGGPGDASPRGCGA [P8S],2.51
22,FLGSSFSNVRCGGPGDASPRGCGA [P8N],2.05

# Reference: the supplement of paper PMC10567573
